In assay [1] the target is monomer HLA-A*0201/HIVpol (Homo sapiens, UniProt P04439, D140Y/D185E/D98H/E176V/E277Q/G131W/G231S/I119V/I121R/I166T/I218V/L300P/L318F/N151K/N90K/P208A/P217A/Q86G/Q94H/R138H/R169H/T345S). Kind of assay: Exchange of fluorescent tracer peptide on template monomer, no competitor.
Assay [2] addresses monomer HLA-A*0201/CMVpp65 (Homo sapiens, UniProt P04439, D140Y/D185E/D98H/E176V/E277Q/G131W/G231S/I119V/I121R/I166T/I218V/L300P/L318F/N151K/N90K/P208A/P217A/Q86G/Q94H/R138H/R169H/T345S). The assay is described as above. To be noted: after 120 h.

Turning to FLPSDC(FITC)FPSV [HBVc-FITC], the “maximum percentage of exchange” value in assay [1] is 40%. For the same substance, the “% exchange” value in assay [2] is given as “about 80%”.

Values taken from patent publication US20050095655A1, “Solution-based methods for detecting MHC-binding peptides” (priority 2003, published 2005).
